Data from publication PMC10864275 (2024).
Residue numbers refer to the chain shown, from its start. Names and notes keep the numbering of the source. Read-outs that look alike come from different tables or passages of the source.

B1: mini-Gs/q R70 (domain or fragment)
chain: IEKQLQKDKQVYRATHRLLLLGADNSGKSTIVKQMRIYHTSGIFETKFQVDKVNFHMFDVGGQRDERRKWIQCFNDVTAIIFVVDSSDYNRLQEALNDFKSIWNNRWLRTISVILFLNKQDLLAEKVLAGKSKIEDYFPEFARYTTPEDATPEPGEDPRVTRAKYFIRDEFLRISTASGDGRHYCYPHFTCAVDTENARRIFNDCKDIILQMNLREYNLV
B2: mini-Gs/i R43 with C96A (domain or fragment)
chain: B1 chain with C73A, C205V, K206T, L210I, Q211K, E216D, Y217C, N218G, V220F
B3: mini-Gs 393 with C96A (domain or fragment)
chain: GIEKQLQKDKQVYRATHRLLLLGADNSGKSTIVKQMRIYHGGSGGSGGTSGIFETKFQVDKVNFHMFDVGGQRDERRKWIQAFNDVTAIIFVVDSSDYNRLQEALNDFKSIWNNRWLRTISVILFLNKQDLLAEKVLAGKSKIEDYFPEFARYTTPEDATPEPGEDPRVTRAKYFIRDEFLRISTASGDGRHYCYPHFTCAVDTENARRIFNDCRDIIQRMHLRQYELL
B4: mini-Go1 R12 (domain or fragment)
chain: IEKNLKEDGISAAKDVKLLLLGADNSGKSTIVKQMKIIHTTGIVETHFTFKNLHFRLFDVGGQRSERKKWIHCFEDVTAIIFCVDLSDYNRMHESLMLFDSICNNKFFIDTSIILFLNKKDLFGEKIKKSPLTICFPEYTGPNTYEDAAAYIQAQFESKNRSPNKEIYCHMTCATDTNNAQVIFDAVTDIIIANNLRGCGLY

How the values were obtained:
[1] = molecular target: T1, avi-β1AR-W (turkey β1-adrenergic receptor, β1AR-MetΔ5 construct with N-terminal biotinylated avi-tag) (turkey, UniProt P07700 1-367, Δ3-32 | Δ244-271 | C358A^8.59 | C116L^3.27 | R68S^1.59 | E130W^3.41 | …, biotin on the avi-tag); test: BLI; isoprenaline
[2] = molecular target: T2, avi-β1AR-E (turkey β1-adrenergic receptor, β1AR-E construct with N-terminal biotinylated avi-tag) (turkey, UniProt P07700 1-367, Δ3-32 | Δ244-271 | C358A^8.59 | C116L^3.27 | R68S^1.59 | F327A^7.37 | …, biotin on the avi-tag); test: BLI; isoprenaline
[3] = molecular target: T1, avi-β1AR-W (turkey β1-adrenergic …); test: BLI; isoprenaline; remark: listed apart in the source
[4] = molecular target: T1, avi-β1AR-W (turkey β1-adrenergic …); test: BLI; isoprenaline; remark: listed apart in the source
[5] = molecular target: T1, avi-β1AR-W (turkey β1-adrenergic …); test: BLI; salbutamol
[6] = molecular target: T2, avi-β1AR-E (turkey β1-adrenergic …); test: BLI; salbutamol
[7] = molecular target: T1, avi-β1AR-W (turkey β1-adrenergic …); test: BLI; isoprenaline; remark: listed apart in the source
[8] = molecular target: T2, avi-β1AR-E (turkey β1-adrenergic …); test: BLI; isoprenaline; remark: listed apart in the source
[9] = molecular target: T1, avi-β1AR-W (turkey β1-adrenergic …); test: BLI; xamoterol
[10] = molecular target: T2, avi-β1AR-E (turkey β1-adrenergic …); test: BLI; xamoterol

T2 sequence (P07700 other isoform, or with tags, fused parts or gaps with the stated changes): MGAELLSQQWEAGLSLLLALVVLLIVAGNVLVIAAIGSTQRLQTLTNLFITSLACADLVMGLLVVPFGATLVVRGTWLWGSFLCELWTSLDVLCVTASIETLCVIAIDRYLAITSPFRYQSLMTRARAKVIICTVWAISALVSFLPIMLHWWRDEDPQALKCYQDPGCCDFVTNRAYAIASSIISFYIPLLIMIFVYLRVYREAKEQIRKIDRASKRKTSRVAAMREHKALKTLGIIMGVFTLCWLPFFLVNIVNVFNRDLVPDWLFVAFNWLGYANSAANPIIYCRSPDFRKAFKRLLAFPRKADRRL
T1 sequence (P07700 other isoform, or with tags, fused parts or gaps with the stated changes): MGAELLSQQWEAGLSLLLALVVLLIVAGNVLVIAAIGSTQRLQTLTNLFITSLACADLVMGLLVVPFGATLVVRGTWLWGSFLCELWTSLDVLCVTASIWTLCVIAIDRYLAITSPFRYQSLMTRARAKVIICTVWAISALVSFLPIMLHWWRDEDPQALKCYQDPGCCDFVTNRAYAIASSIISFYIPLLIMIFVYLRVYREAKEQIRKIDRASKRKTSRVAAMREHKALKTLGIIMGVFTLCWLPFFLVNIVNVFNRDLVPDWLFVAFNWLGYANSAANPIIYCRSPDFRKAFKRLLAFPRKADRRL

Row | Binder | koff [1] | koff [2] | Kd [3] | Kd [4] | Kd [5] | Kd [6] | koff [7] | koff [8] | Kd [9] | Kd [10]
1 | B1 | 0.0067 s⁻¹ | 0.00343 s⁻¹ | 0.534 µM | – | – | – | – | – | – | –
2 | B2 | 0.00623 s⁻¹ | 0.00397 s⁻¹ | 2.53 µM | – | – | – | – | – | – | –
3 | B3 | – | – | – | 0.161 µM | 1.46 µM | 0.962 µM | 0.00625 s⁻¹ | 0.00689 s⁻¹ | 2.97 µM | 2.36 µM
4 | B4 | 0.00941 s⁻¹ | 0.00393 s⁻¹ | 7.41 µM | – | – | – | – | – | – | –
